Assay results as given in FireProtDB (doi:10.1074/jbc.272.30.18686).

B1: Ribonuclease HI, P0A7Y4 (parent)
chain: MLKQVEIFTDGSCLGNPGPGGYGAILRYRGREKTFSAGYTRTTNNRMELMAAIVALEALKEHCEVILSTDSQYVRQGITQWIHNWKKRGWKTADKKPVKNVDLWQRLDAALGQHQIKWEWVKGHAGHPENERCDELARAAAMNPTLEDTGYQVEV

Variants of: B1
Settings: Escherichia coli (strain K12), pH 3.2, Thermal, CD, glycine-HCl 10 mM, reversible: yes, structure 2RN2, whole UniProt chain shown; for ddG of mutation (higher = less stable): 53 °C

For MLKQVEIFTDGSCLGNPGPGGYGAILRYRGREKTFSAGYTRTTNNRMELMAVIVALEALKEHCEVILSTDSQYARQGITQWIHNWKKRGWKTADKKPVKNVDLWQRLDAALGQHQIKWEWVKGHAGHPENERCDELARAAAMNPTLEDTGYQVEV [A52V V74A], the “ddG of mutation (higher = less stable)” value was 0.52 kcal/mol, the Tm was 51.3 °C and the “change of melting temperature, mutant - wild type (higher = more stable)” value (“change of melting temperature, mutant” below) was -1.7 °C. For the same variant, the “unfolding enthalpy (van 't Hoff)” value was 107 kcal/mol.

For MLKQVEIFTDGSCLGNPGPGGYGAILRYRGREKTFSAGYTRTTNNRMELMALIVALEALKEHCEVILSTDSQYLRQGITQWIHNWKKRGWKTADKKPVKNVDLWQRLDAALGQHQIKWEWVKGHAGHPENERCDELARAAAMNPTLEDTGYQVEV [A52L V74L], the “ddG of mutation (higher = less stable)” value was -1.49 kcal/mol, the Tm was 57.9 °C and the “change of melting temperature, mutant” value was 4.9 °C. For the same variant, the “unfolding enthalpy (van 't Hoff)” value was 118 kcal/mol.

For MLKQVEIFTDGSCLGNPGPGGYGAILRYRGREKTFSAGYTRTTNNRMELMANIVALEALKEHCEVILSTDSQYVRQGITQWIHNWKKRGWKTADKKPVKNVDLWQRLDAALGQHQIKWEWVKGHAGHPENERCDELARAAAMNPTLEDTGYQVEV [A52N], the “ddG of mutation (higher = less stable)” value was 1.8 kcal/mol, the Tm was 47.1 °C and the “change of melting temperature, mutant” value was -5.9 °C. The “unfolding enthalpy (van 't Hoff)” value was 95.6 kcal/mol.

In the case of MLKQVEIFTDGSCLGNPGPGGYGAILRYRGREKTFSAGYTRTTNNRMELMAVIVALEALKEHCEVILSTDSQYVRQGITQWIHNWKKRGWKTADKKPVKNVDLWQRLDAALGQHQIKWEWVKGHAGHPENERCDELARAAAMNPTLEDTGYQVEV [A52V], the “ddG of mutation (higher = less stable)” value is reported as -1.7 kcal/mol, the Tm is reported as 58.5 °C and the “change of melting temperature, mutant” value is reported as 5.5 °C. The “unfolding enthalpy (van 't Hoff)” value was 128 kcal/mol.

For MLKQVEIFTDGSCLGNPGPGGYGAILRYRGREKTFSAGYTRTTNNRMELMAQIVALEALKEHCEVILSTDSQYVRQGITQWIHNWKKRGWKTADKKPVKNVDLWQRLDAALGQHQIKWEWVKGHAGHPENERCDELARAAAMNPTLEDTGYQVEV [A52Q], the “ddG of mutation (higher = less stable)” value was 1.2 kcal/mol, the Tm was 49.1 °C and the “change of melting temperature, mutant” value was -3.9 °C. The “unfolding enthalpy (van 't Hoff)” value was 90.3 kcal/mol.

In the case of MLKQVEIFTDGSCLGNPGPGGYGAILRYRGREKTFSAGYTRTTNNRMELMATIVALEALKEHCEVILSTDSQYVRQGITQWIHNWKKRGWKTADKKPVKNVDLWQRLDAALGQHQIKWEWVKGHAGHPENERCDELARAAAMNPTLEDTGYQVEV [A52T], the “ddG of mutation (higher = less stable)” value is reported as 0.8 kcal/mol, the Tm is reported as 50.3 °C and the “change of melting temperature, mutant” value is reported as -2.7 °C. For the same variant, the “unfolding enthalpy (van 't Hoff)” value was 108 kcal/mol.

For MLKQVEIFTDGSCLGNPGPGGYGAILRYRGREKTFSAGYTRTTNNRMELMASIVALEALKEHCEVILSTDSQYVRQGITQWIHNWKKRGWKTADKKPVKNVDLWQRLDAALGQHQIKWEWVKGHAGHPENERCDELARAAAMNPTLEDTGYQVEV [A52S], the “ddG of mutation (higher = less stable)” value was 1.8 kcal/mol, the Tm was 47.2 °C and the “change of melting temperature, mutant” value was -5.8 °C. For the same variant, the “unfolding enthalpy (van 't Hoff)” value was 118 kcal/mol.

For MLKQVEIFTDGSCLGNPGPGGYGAILRYRGREKTFSAGYTRTTNNRMELMAPIVALEALKEHCEVILSTDSQYVRQGITQWIHNWKKRGWKTADKKPVKNVDLWQRLDAALGQHQIKWEWVKGHAGHPENERCDELARAAAMNPTLEDTGYQVEV [A52P], the “ddG of mutation (higher = less stable)” value was 1.6 kcal/mol, the Tm was 47.6 °C and the “change of melting temperature, mutant” value was -5.4 °C. For the same variant, the “unfolding enthalpy (van 't Hoff)” value was 93 kcal/mol.

In the case of MLKQVEIFTDGSCLGNPGPGGYGAILRYRGREKTFSAGYTRTTNNRMELMAMIVALEALKEHCEVILSTDSQYVRQGITQWIHNWKKRGWKTADKKPVKNVDLWQRLDAALGQHQIKWEWVKGHAGHPENERCDELARAAAMNPTLEDTGYQVEV [A52M], the “ddG of mutation (higher = less stable)” value is reported as -0.5 kcal/mol, the Tm is reported as 54.6 °C and the “change of melting temperature, mutant” value is reported as 1.6 °C. The “unfolding enthalpy (van 't Hoff)” value was 112 kcal/mol.
